Assay results taken from patent US20220143136A1, “USE OF ANNEXINS IN PREVENTING AND TREATING MUSCLE MEMBRANE INJURY” (NORTHWESTERN UNIVERSITY, priority 2018, published 2022).

Experiments:
[1] = system: tibialis anterior muscles of wildtype mice; test: Cardiotoxin injury, intramuscular recombinant annexin A6, Evan's blue dye uptake; type: in vivo, mouse; details: for decrease in Evan's blue dye uptake (fluorescence over muscle area): 25 μg/ml intramuscular 2 hours before cardiotoxin, harvested 3 hours post injury, vs control muscle; for cardiotoxin-induced muscle damage, dye uptake by gross imaging: intramuscular pretreatment vs control
Method: (§1) Cardiotoxin Injury and analysis. […] Additionally, mice were injected intraperitoneally with Evans' blue dye at 5 μl/g body weight (E-2129; Sigma-Aldrich, St. Louis, Mo.) dissolved in phosphate-buffered saline at 10 mg/mL. […] Cardiotoxin injury was performed injecting 20 μl of a 10 μM cardiotoxin (discontinued, Sigma-Aldrich) solution in PBS in tibialis muscles in sedated animals (3% isoflurane, 0.8 l/min O2) 2 hours post pretreatment. Cardiotoxin was released down the midline of the muscle to induce a homogenous area of injury at the center of the muscle. 3 hours post cardiotoxin injection muscle was harvested and frozen in liquid nitrogen.
(§2) Immunofluorescence microscopy. Sections (10 μm thick) from the center of frozen-embedded muscles were collected on the cryostat (chamber, −20° C.; sample, −15° C.; catalog number CM1950; Leica, Wetzlar, Germany) for immunostaining. Tissues were fixed with 4% paraformaldehyde for 10 minutes on ice. Block and permeabilization were with 0.1% Triton (catalog number X-100; Sigma-Aldrich), 10% fetal bovine serum, and PBS for 60 minutes. For dystrophin detection, anti-dystrophin (ab15277; Abcam, Cambridge, Mass.) was used at a dilution of 1:100 overnight at 4° C. Sections were PBS rinsed, incubated with secondary antibody goat anti rabbit (A11008, Invitrogen) for 1 hour, PBS rinsed, and mounted in vectashield with DAPI (H-1200, Vector Laboratories). Imaging was performed using a Zeiss Axio Observer A1 microscope (Zeiss, Oberkochen, Germany), using a 10× objective. ZEN software (Zeiss, Jena, Germany) was used for acquiring images. Fluorescence quantitation and muscle area were performed using FIJI (NIH). Surface plots were created in FIJI (NIH). Fluorescence volume was quantified using Imaris Software v9.1.2.
(§3) Cardiotoxin Injury and analysis. […] Additionally, mice were injected with Evans' blue dye at 5 μl/g body weight (E-2129; Sigma-Aldrich, St. Louis, Mo.) dissolved in phosphate-buffered saline at 10 mg/mL cardiotoxin injury was performed injecting 20 μl of a 10 μM cardiotoxin solution in PBS in tibialis anterior or gastroc/soleus muscles in sedated animals (3% isoflurane, 0.8 l/min O2) 2 hours post pretreatment. Cardiotoxin was released down the midline of the muscle to induce a homogenous area of injury at the center of the muscle. 3 hours post cardiotoxin injection muscle was harvested.
Evans blue dye uptake. […] Fluorescence quantitation, surface plots, and muscle area were performed using FIJI (NIH). For whole tissue dye quantification, whole tissue was dissected, finely minced, weighed, and incubated at 55° C. in 1 mL of formamide for 2 hours. Spectrophotometric absorbance was measured at 620 nm.

[2] = system: wildtype mice; test: Cardiotoxin injury, systemic retro-orbital recombinant annexin A6, Evan's blue dye uptake; type: in vivo, mouse; details: vs vehicle; for decrease in Evan's blue dye uptake, fluorescence imaging of tibialis anterior: 1 mg/kg retro-orbital 2 hours before cardiotoxin, 3 hours post injury
Method: as §1, §2, §3
Evans blue dye uptake. Sections (10 μm thick) from the center of frozen-embedded muscles were collected on the cryostat (chamber, −20° C.; sample, −15° C.; catalog number CM1950; Leica, Wetzlar, Germany). Tissue sections were fixed with methanol for 2 minutes, rinsed and mounted with vectashield with DAPI (H-1200, Vector Laboratories). Imaging was performed using a Zeiss Axio Observer A1 microscope (Zeiss, Oberkochen, Germany), using a 10× objective. ZEN software (Zeiss, Jena, Germany) was used for acquiring images. Fluorescence quantitation, surface plots, and muscle area were performed using FIJI (NIH). For whole tissue dye quantification, whole tissue was dissected, finely minced, weighed, and incubated at 55° C. in 1 mL of formamide for 2 hours. Spectrophotometric absorbance was measured at 620 nm.

[3] = system: wildtype myofibers; test: Ca2+-dependency of recombinant annexin A6 protection, FM 1-43 uptake after laser injury; type: cell-based, mouse; details: 20 μg/ml rANXA6 pretreatment, 0 mM Ca2+ + EGTA compared with 1 mM Ca2+
Method: Multiphoton laser injury and imaging. Fibers were subjected to laser-induced damage at room temperature using the Nikon A1R-MP multiphoton microscope. Imaging was performed using a 25×1.1 NA objective directed by the NIS-Elements AR imaging software. Green fluorescence protein (GFP) and FM 4-64 were excited using a 920 nm wavelength laser and emission wavelengths of 575 nm and 629 nm were collected respectively. To induce laser damage on isolated myofibers, a diffraction limited spot (diameter approximately 410 nm) was created on the lateral membrane of the myofiber using a 920 nm wavelength laser at 10-15% laser power for 1 s. Time lapse images were collected as follows: one image was collected prior to damage, one image upon damage, then every 8 seconds for 80 seconds (10 images) followed by every 30 seconds for 5 minutes (10 images). At the end of the time lapsed image series, z-stack images were collected at 250 nm intervals through the damaged site on the myofiber directed by the NIS-Elements AR imaging software. The multiphoton was used to acquire data presented in FIG. 5, FIG. 10D and FIG. 19.
For recombinant protein calcium studies, myofibers were isolated from wildtype mice as described above. […] Images were acquired and quantitated as described above. FM 1-43 fluorescence over time was measured using FIJI and plotted overtime as F/F0.

B1: recombinant annexin A6: recombinant human annexin A6 protein with C-terminal HIS tag (5186-A6-050, R&D systems); mouse protein from Northwestern core in one cohort (protein, UniProt P08133 2-673, looked up)
Annexin A6: AKPAQGAKYRGSIHDFPGFDPNQDAEALYTAMKGFGSDKEAILDIITSRSNRQRQEVCQSYKSLYGKDLIADLKYELTGKFERLIVGLMRPPAYCDAKEIKDAISGIGTDEKCLIEILASRTNEQMHQLVAAYKDAYERDLEADIIGDTSGHFQKMLVVLLQGTREEDDVVSEDLVQQDVQDLYEAGELKWGTDEAQFIYILGNRSKQHLRLVFDEYLKTTGKPIEASIRGELSGDFEKLMLAVVKCIRSTPEYFAERLFKAMKGLGTRDNTLIRIMVSRSELDMLDIREIFRTKYEKSLYSMIKNDTSGEYKKTLLKLSGGDDDAAGQFFPEAAQVAYQMWELSAVARVELKGTVRPANDFNPDADAKALRKAMKGLGTDEDTIIDIITHRSNVQRQQIRQTFKSHFGRDLMTDLKSEISGDLARLILGLMMPPAHYDAKQLKKAMEGAGTDEKALIEILATRTNAEIRAINEAYKEDYHKSLEDALSSDTSGHFRRILISLATGHREEGGENLDQAREDAQVAAEILEIADTPSGDKTSLETRFMTILCTRSYPHLRRVFQEFIKMTNYDVEHTIKKEMSGDVRDAFVAIVQSVKNKPLFFADKLYKSMKGAGTDEKTLTRIMVSRSEIDLLNIRREFIEKYDKSLHQAIEGDTSGDFLKALLALCGGED
modifications: C-terminal His tag
notes: recombinant human annexin A6 protein with C-terminal HIS tag (5186-A6-050, R&D systems); mouse protein from Northwestern core in one cohort
decrease in Evan's blue dye uptake (fluorescence over muscle area) [1]: 50%
decrease in Evan's blue dye uptake (fluorescence over muscle area) ([1]; listed as rANXA6): approximately 50%
cardiotoxin-induced muscle damage, dye uptake by gross imaging [1]: reduced
cardiotoxin-induced muscle damage, dye uptake by gross imaging ([1]; listed as rANXA6): decreased
decrease in Evan's blue dye uptake, fluorescence imaging of tibialis anterior [2]: 38%
decrease in Evan's blue dye uptake, fluorescence imaging of tibialis anterior ([2]; listed as rANXA6): approximately 38%
reduction in dye uptake, whole tissue spectroscopic analysis of gastrocnemius/soleus ([2]; 1 mg/kg retro-orbital pretreatment): 58%
Evan's blue dye uptake, fluorescence imaging ([2]; retro-orbital post-treatment immediately after cardiotoxin): significant decrease
Evan's blue dye uptake, fluorescence imaging ([2]; retro-orbital pretreatment 2 hours prior to cardiotoxin): significant decrease
FM 1-43 fluorescence accumulation at the lesion over time (F/F0) [3]: significantly increased
FM 1-43 fluorescence accumulation at the lesion over time (F/F0) ([3]; listed as rANXA6): significantly reduced at 1 mM
